Reference: patent publication US20110059013A1, “ANTI-ROBO4 ANTIBODIES AND USES THEREFOR” (Genentech, Inc., priority 2007, published 2011)

Experiments:
[1] = test system: HUVEC; assay: HUVEC cellular migration assay; format: cell-based, human
Method: Robo4-Fc and Robo4-His were contacted with vascular ECs using a HUVEC migration assay and in the presence or absence of VEGF.
Endothelial cell migration was not blocked by anti-Robo4 antibody in an in vitro assay using human umbilical vascular endothelial cells (HUVEC) cellular migration assay. HUVECs endogenously express human Robo4. The assay was performed as follows. HUVECs were pre-incubated for 2 hours with VEGF.

[2] = target: T1, UNC5B (Homo sapiens, UniProt Q8IZJ1); assay: SPR binding to immobilized UNC5B-Fc
T1 construct: extracellular domain of UNC5B fused to an Fc region; Fc region
Method: It has been shown that netrin binding to members of the uncoordinated-5 (UNC5) family of receptors (UNC5A, B, C, and D) results in neural axon […] (Klagsbrun, M. and Eichmann, A., Cytokine & Growth Factor Reviews 16(4-5):535-548 (2005)). Netrin-UNC5B interaction has been implicated in angiogenesis (Klagsbrun, M. and Eichmann, A., supra (2005) and Lu, X. et al., Nature 432:179-186 (2004)). The interaction of Robo4 with UNC5B in vitro was determined by SPR binding measurements in which UNC5B-Fc fusion protein (extracellular domain of UNC5B fused to an Fc region) was immobilized on a chip and soluble Robo4-Fc or Robo4-His was allowed to interact with it at different concentrations.

T1 sequence (Q8IZJ1 27-377 limits assumed, species assumed): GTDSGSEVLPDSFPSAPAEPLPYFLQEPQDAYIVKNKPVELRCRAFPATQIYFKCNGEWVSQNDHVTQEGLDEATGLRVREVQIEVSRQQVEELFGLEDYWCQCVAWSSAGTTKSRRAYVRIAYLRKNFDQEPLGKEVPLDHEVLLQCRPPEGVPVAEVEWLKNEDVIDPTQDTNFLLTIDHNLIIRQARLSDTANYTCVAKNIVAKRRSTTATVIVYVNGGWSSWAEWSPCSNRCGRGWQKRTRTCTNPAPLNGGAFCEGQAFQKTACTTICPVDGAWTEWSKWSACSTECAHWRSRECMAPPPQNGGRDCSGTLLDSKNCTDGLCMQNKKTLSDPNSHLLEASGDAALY

B1: Robo4-His: soluble Robo4 extracellular domain fused to a C-terminal Histidine tag (protein)
chain: QDSPPQILVHPQDQLFQGPGPARMSCQASGQPPPTIRWLLNGQPLSMVPPDPHHLLPDGTLLLLQPPARGHAHDGQALSTDLGVYTCEASNRLGTAVSRGARLSVAVLREDFQIQPRDMVAVVGEQFTLECGPPWGHPEPTVSWWKDGKPLALQPGRHTVSGGSLLMARAEKSDEGTYMCVATNSAGHRESRAARVSIQEPQDYRAHHHHHHHH
- blocking of endothelial cell migration ([1]; HUVECs pre-incubated with VEGF, 16 hours): Neither anti-Robo4 nor the soluble Robo4 extracellular domain fusion proteins (Robo4-Fc and Robo4-His) blocked EC migration
- induction of EC migration ([1]; alone, absence of VEGF): did not induce EC migration
- interaction with UNC5B [2]: interacts in vitro with UNC5B
